From patent US20220357348A1 (FARON PHARMACEUTICALS, published 2022)

Target: T1, human Clever-1 (Common Lymphatic Endothelial and Vascular Endothelial Receptor-1) expressed on KG-1 cells (human, UniProt Q9NY15 26-2570)
T1 construct: whole, on cells; also called Stabilin-1
Assay: flow cytometry on KG-1 cells, 4 C, titration 10-0.014 µg/mL, AlexaFluor 647 anti-HuIgG secondary
Protocol: Excess primary antibody was removed and the cells were then incubated for a further 30 minutes at 4° C. with either an AlexaFluor 647 labelled anti-HulgG or PE labelled anti-rat IgG antibody (ThermoFisher Scientific, Loughborough, UK) at 10 μg/mL. The unbound secondary antibody was washed away, and the cells fixed with BD CellFix (BD Biosciences, Oxford, UK) before analysis. Samples were acquired on an Attune NxT focussing cytometer equipped with a blue and red laser (ThermoFisher Scientific, Loughborough, UK) using the BL2 and RL1 channels for PE and AlexaFluor 647 dyes, respectively. The MFI values were plotted against the antibody concentration. […] The MFI in the absence of primary antibody is represented by a dotted line.

T1 sequence (Q9NY15 26-2570): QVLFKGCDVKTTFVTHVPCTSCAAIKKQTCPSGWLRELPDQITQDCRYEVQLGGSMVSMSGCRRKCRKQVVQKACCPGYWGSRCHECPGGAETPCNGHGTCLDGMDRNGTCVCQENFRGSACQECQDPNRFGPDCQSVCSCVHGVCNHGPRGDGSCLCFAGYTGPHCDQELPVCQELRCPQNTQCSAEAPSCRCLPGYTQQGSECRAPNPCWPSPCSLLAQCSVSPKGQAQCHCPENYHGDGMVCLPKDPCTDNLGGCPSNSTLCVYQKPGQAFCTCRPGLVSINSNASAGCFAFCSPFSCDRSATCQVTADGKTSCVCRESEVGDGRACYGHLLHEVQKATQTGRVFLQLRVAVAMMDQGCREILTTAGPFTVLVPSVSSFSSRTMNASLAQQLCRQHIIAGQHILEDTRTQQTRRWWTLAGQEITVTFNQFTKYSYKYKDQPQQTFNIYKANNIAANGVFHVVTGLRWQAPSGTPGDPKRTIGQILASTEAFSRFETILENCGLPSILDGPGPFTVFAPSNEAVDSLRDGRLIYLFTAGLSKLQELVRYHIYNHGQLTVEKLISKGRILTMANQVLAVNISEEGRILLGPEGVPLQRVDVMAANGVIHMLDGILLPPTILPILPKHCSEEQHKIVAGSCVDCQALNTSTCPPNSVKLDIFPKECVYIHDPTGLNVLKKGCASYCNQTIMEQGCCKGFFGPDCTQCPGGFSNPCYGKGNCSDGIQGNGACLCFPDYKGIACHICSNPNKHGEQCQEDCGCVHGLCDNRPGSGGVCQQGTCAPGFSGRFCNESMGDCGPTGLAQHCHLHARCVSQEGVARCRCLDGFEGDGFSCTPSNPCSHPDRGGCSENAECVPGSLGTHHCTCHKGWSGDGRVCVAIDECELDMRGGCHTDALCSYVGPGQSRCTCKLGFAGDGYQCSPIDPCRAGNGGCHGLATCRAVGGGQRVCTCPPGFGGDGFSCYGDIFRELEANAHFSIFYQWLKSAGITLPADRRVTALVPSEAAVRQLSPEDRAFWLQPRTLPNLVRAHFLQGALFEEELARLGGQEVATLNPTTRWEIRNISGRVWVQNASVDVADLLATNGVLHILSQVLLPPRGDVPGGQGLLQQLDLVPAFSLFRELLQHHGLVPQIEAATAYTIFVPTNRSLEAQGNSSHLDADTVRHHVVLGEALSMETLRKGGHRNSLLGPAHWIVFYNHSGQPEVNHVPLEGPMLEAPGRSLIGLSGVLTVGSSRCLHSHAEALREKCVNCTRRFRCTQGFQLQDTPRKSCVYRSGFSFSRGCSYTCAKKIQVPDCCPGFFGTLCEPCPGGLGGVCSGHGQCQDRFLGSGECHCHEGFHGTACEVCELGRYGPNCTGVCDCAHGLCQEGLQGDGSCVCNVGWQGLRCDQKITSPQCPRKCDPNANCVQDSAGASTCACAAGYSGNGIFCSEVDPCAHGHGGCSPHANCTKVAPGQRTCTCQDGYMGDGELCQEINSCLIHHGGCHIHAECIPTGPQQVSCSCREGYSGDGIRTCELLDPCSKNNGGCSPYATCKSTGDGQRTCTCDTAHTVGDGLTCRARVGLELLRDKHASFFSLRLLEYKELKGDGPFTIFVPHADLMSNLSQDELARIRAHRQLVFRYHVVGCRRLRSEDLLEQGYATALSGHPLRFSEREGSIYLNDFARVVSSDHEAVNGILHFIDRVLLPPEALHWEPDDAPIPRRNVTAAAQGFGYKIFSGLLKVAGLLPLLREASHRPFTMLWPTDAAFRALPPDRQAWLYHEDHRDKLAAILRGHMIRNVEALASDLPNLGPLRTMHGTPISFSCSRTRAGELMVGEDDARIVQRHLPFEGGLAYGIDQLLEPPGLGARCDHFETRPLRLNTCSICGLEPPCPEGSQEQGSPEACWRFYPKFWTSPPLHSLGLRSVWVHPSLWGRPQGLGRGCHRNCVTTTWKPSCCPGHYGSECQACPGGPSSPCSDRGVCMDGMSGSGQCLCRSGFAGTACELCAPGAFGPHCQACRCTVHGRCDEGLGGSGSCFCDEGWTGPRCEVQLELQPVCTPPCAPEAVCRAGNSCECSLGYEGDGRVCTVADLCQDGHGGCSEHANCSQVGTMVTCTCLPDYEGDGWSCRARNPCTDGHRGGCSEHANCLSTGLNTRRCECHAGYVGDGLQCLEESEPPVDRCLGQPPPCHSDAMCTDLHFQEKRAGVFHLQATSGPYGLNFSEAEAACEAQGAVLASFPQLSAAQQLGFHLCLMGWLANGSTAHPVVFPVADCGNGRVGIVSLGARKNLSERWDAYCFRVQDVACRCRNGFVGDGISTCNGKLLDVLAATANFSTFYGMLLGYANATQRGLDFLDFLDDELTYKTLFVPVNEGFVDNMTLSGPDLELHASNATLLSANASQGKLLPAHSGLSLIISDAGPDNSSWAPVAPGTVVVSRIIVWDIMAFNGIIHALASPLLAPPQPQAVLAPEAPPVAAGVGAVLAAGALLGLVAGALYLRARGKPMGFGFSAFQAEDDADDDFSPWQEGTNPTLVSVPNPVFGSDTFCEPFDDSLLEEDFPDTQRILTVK

B1: humanized anti-Clever-1 antibody FP-1305 (DSM ACC3361) (antibody, human IgG4 S228P, kappa, V domains shown)
VH: QVTLKESGPTLVKPTQTLTLTCSFSGFSLSTSGMGIGWIRQPPGKALEWLAHIWWDDDKRYNPALKSRLTISKDTSKNQVVLTMTNMDPVDTATYYCARHYGYDPYYAMDYWGQGTLVTVSS
VL: EIVLTQSPGTLSLSPGERATLSCTASSSVSSSYLHWYQQKPGKAPKLLIYRTSNLASGVPSRFSGSGSGTDYTLTISSLQPEDFATYYCHQYHRSPPTFGQGTKLEIKR
notes: Its isotype control is HuIgG4 S241P L248E; also called bexmarilimab
binding result: binds
